In one experiment the test system is A-673 and EW8 cells. Kind of experiment: Proliferation of NELL2- or Robo3-silenced Ewing sarcoma cells (IncuCyte). The class given is cell-based, human. The note with it: A-673 cells transfected with NELL2 siRNAs, recombinant NELL2 250 ng/ml. The protocol:
Transfection and viral infection. Calcium phosphate co-precipitation was used for transfection of 293T cells. Lentiviruses were prepared by transfection in 293T cells following System Biosciences' protocol, and the cells infected with lentiviruses were selected with 2 μg/mL puromycin for 48 hours. The target sequences for shRNAs are as follows: FLI1 C-terminus shRNA, […] (SEQ ID NO: 20); luciferase shRNA, […] (SEQ ID NO: 21); NELL2 shRNA-1, […] (SEQ ID NO: 22); and NELL2 shRNA-2, […] (SEQ ID NO: 23). The following siRNAs were used: human NELL2 siRNA SMARTpool (M-012185-00); Dharmacon), human Robo3 siRNA SMARTpool (M-026504-00; Dharmacon), human Robo3 siRNAs NM_022370 (SASI_Hs01_00099511, SASI_Hs01_00099512, SASI_Hs01_00099513, SASI_Hs01_00099514, SASI_Hs01_00099515 and SASI_Hs01_00099516; MilliporeSigma), human cdc42 siRNA SMARTpool (M-005057-01; Dharmacon), human CD133 siRNA SMARTpool (M-010630-01; Dharmacon), human srGAP1 siRNA SMARTpool (M-026974-00; Dharmacon), srGAP2 siRNA SMARTpool (M-021531-03; Dharmacon), human caveolin-1 siRNA SMARTpool (M-003467-01; Dharmacon), human GDF6 siRNA SMARTpool (M-0330055-01; Dharmacon), and Non-Targeting siRNA Pool #2 (D-0012Jun. 14, 2005; Dharmacon), siRNA transfection of cell lines was performed using Lipofectamine™ RNAiMAX Transfection Reagent (Thermo Fisher).
Cell proliferation and xenograft tumorigenicity assays. Anchorage-dependent cell proliferation was assessed by IncuCyte live-cell imaging system (Essen BioScience). The IncuCyte system monitors cell proliferation by analyzing the occupied area (% confluence) of cell images over time. At least four fields from four wells were assayed for each experimental condition. The cell seeding density was 2000 cells per well in a 96-well plate. […] Anchorage-independent cell proliferation was evaluated by soft agar colony formation assays. […] Colonies were grown for three weeks and counted. Colonies (>50 cells) were scored by randomly counting 10 fields per dish. […] Tumor growth was monitored weekly using a caliper. […]

Experiment [1] concerns BAF complexes. Kind of experiment: BAF subunit protein levels by immunoblotting in Ewing sarcoma cells. The class given is cell-based, human.
Description: Immunoblotting. […] The following antibodies were used: rabbit polyclonal anti-FLI1 (ab15289, Abcam); mouse monoclonal anti-FLAG M2 (F1804, MilliporeSigma): rabbit monoclonal anti-NELL2 (ab181376, Abcam); goat polyclonal anti-PGK1 (sc-17943, Santa Cruz Biotechnology); rabbit polyclonal anti-Robo3 (LS-C345713, LSBio); goat polyclonal anti-Robo3 (PA5-18714, Thermo Fisher Scientific); mouse monoclonal anti-cdc42 (ACD03, Cytoskeleton); rabbit polyclonal anti-Rac1/2/3 (2465, Cell Signaling Technologies); rabbit polyclonal anti-Rho A (2117, Cell Signaling Technologies); goat polyclonal anti-BRG1 (A303-877A, Bethyl Laboratories); rabbit monoclonal anti-BRG1 (49360, Cell Signaling Technologies); rabbit polyclonal anti-BRM (A301-014A-T, Bethyl Laboratories); mouse monoclonal anti-ARID1A/BAF250) (sc-32761, Santa Cruz Biotechnology); rabbit polyclonal anti-BAF170 (A301-039A-T, Bethyl Laboratories); rabbit monoclonal anti-BAF155 (11956, Cell Signaling Technologies); rabbit polyclonal anti-BAF60B (A301-596A-T, Bethyl Laboratories); rabbit polyclonal anti-BAF57 (A300-810A-T, Bethyl Laboratories); rabbit polyclonal anti-BAF53A (A301-391A-T, Bethyl Laboratories); rabbit monoclonal anti-BAF47 (8745, Cell Signaling Technologies); rabbit polyclonal anti-BRD9 (A303-781A-T, Bethyl Laboratories); rabbit monoclonal anti-SS18 (21792, Cell Signaling Technologies); rabbit monoclonal anti-CD133 (64326, Cell Signaling Technologies); rabbit polyclonal anti-srGAP1 (A301-286A-T, Bethyl Laboratories); rabbit polyclonal anti-srGAP2 (GTX130797, GeneTex); mouse monoclonal anti-tubulin (DMIA, Thermo Fisher Scientific); rabbit polyclonal anti-β-actin (4967, Cell Signaling Technologies); mouse monoclonal anti-Rpb1 (2629, Cell Signaling Technologies); rabbit monoclonal anti-cdc6 (3387, Cell Signaling Technologies); rabbit monoclonal anti-caveolin-1 (3267, Cell Signaling Technologies); rabbit polyclonal anti-phospho-caveolin-1 (3251, Cell Signaling Technologies); rabbit monoclonal anti-Src (2123, Cell Signaling Technologies); rabbit monoclonal anti-phospho-Src Family (6943, Cell Signaling Technologies); and rabbit polyclonal anti-GDF6 (NBP1-91934, Novus Biologicals). The following HRP-conjugated secondary antibodies were used: goat anti-rabbit (7074) and goat anti-mouse (7076) (Cell Signaling Technologies); donkey anti-goat (A50)-201P, Bethyl Laboratories).
The test system of the next experiment is cdc42 and Rac. Kind of experiment: GST-PAKI pull-down of active cdc42 and Rac. The class given is cell-based, human. The note with it: FIG. 3D. The protocol:
GST pull-down assays. The active form of cdc42, Rac, and Rho A was analyzed by pull-down of whole cell lysate with GST-PAKI (active cdc42 and Rac) and GST-RBD (active Rho A) followed by immunoblotting for cdc42, Rac, and Rho A as described (Ren, X. D., et al. (1999) EMBO J 18, 578-585).

Experiment [2] relates to BAF complexes. Kind of experiment: Gel filtration chromatography of nuclear extract (BAF complex assembly). In kind it is cell-based. The settings on record: A-673 cells; four-hour treatment. The protocol:
Gel filtration chromatography. Nuclear extract was prepared as described (Carey, M. F., et al. (2009) Dignam and Roeder nuclear extract preparation. Cold Spring Harbor protocols 2009, pdb prot5330). The extract (5 mg) was loaded onto HiPrep 16/60 Sephacryl S-400 HR column (GE Healthcare) equilibrated with a gel filtration buffer (150 mM NaCl, 20 mM Hepes-KOH, 10 mM KCl, 1 mM MgCl2, 1 mM EDTA, 1 mM EGTA, 1 mM DTT, pH 7.5). Proteins were eluted at 1 ml/min and 1-ml fractions were collected. Every fourth fraction was concentrated and analyzed by immunoblotting.
A general note: Size exclusion chromatography separates by hydrodynamic size, large species first.

The next experiment has as its system CD133^low population. Kind of experiment: Proliferation of sorted CD133low population (IncuCyte). The class given is cell-based, human. The settings on record: FIG. 5A. The protocol: Cell proliferation and xenograft tumorigenicity assays. Anchorage-dependent cell proliferation was assessed by IncuCyte live-cell imaging system (Essen BioScience). The IncuCyte system monitors cell proliferation by analyzing the occupied area (% confluence) of cell images over time. At least four fields from four wells were assayed for each experimental condition. The cell seeding density was 2000 cells per well in a 96-well plate. For each assay, biological replicates were performed to confirm the reproducibility of results. Anchorage-independent cell proliferation was evaluated by soft agar colony formation assays. A-673 cells were infected with lentiviruses expressing shRNAs against NELL2 or scrambled shRNA and were selected with 2 μg/ml puromycin. Four days after infection, 4×10^3 cells were plated in soft agar. The soft agar cultures were composed of two layers; a base layer [4 ml in a 60-mm dish; DMEM/10% fetal bovine serum/0.6% noble agar (A5431, MilliporeSigma)/penicillin/streptomycin] and a cell layer (2 ml in a 60-mm dish; DMEM/10% fetal bovine serum/0.3% noble agar/penicillin/streptomycin). Colonies were grown for three weeks and counted. Colonies (>50 cells) were scored by randomly counting 10 fields per dish. Sphere formation assays were done (Dasgupta, A., et al. (2017) Oncotarget 8, 77292-77308) using ultra-low attachment 6-well plates (Corning: seeding density 1×10^4 cells/well) and DMEM/F-12 medium supplemented with B27, human recombinant epidermal growth factor (20 ng/ml), and basic fibroblast growth factor (20 ng/ml). For xenograft tumorigenicity assays, cells were subcutaneously injected into the flanks of SCID mice (2×10^6 cells/injection, five mice/group). Tumor growth was monitored weekly using a caliper. While it is not possible to predict the effect size, the sample size of five mice per group was chosen based on experience with xenograft experiments. Mice were randomly allocated to treatment groups. Blinding of the researcher measuring tumor size was employed.
Flow cytometry. […]

In experiment [3] the test system is Robo3-FLAG on A-673 cell surface. Kind of experiment: Robo3-FLAG cell surface staining in NELL2-silenced cells. The class given is cell-based, human. The note with it: A-673 cells; FIG. 2D. The protocol:
Immunofluorescence. Cells grown on coverslips were fixed with 4% paraformaldehyde for 15 minutes at room temperature, washed with PBS, and permeabilized with 0.2% pre-chilled Triton-X 100/PBS for 5 minutes. The samples were blocked with culture medium for one hour and incubated with the primary antibody for three hours followed by the secondary antibody for one hour. The following primary antibodies were used: rabbit polyclonal anti-NELL2 (NBP1-82527, Novus Biologicals); mouse monoclonal anti-FLAG M2 (F1804, MilliporeSigma); mouse monoclonal anti-CD133 AC133 (130-090-422, Miltenyi Biotec); rabbit polyclonal anti-FLI1 (ab15289, Abcam); and mouse monoclonal anti-CD99 (MS-1633-P0, Thermo Fisher Scientific). The following secondary antibodies were used: Alexa Fluor 488, goat anti-rabbit IgG (A11034, Thermo Fisher Scientific); Alexa Fluor 568, goat anti-rabbit IgG (A11036, Thermo Fisher Scientific); Alexa Fluor 488, goat anti-mouse IgM (A21042, Thermo Fisher Scientific); and Alexa Fluor 594, goat anti-mouse IgG (A11032, Thermo Fisher Scientific). Nuclei were stained with DAPI. DyLight™ 554 Phalloidin (13054, Cell Signaling Technologies) was used to visualize filopodia.

Entries after “also recorded” stand apart in the source; their conditions may differ. Bounds are passed on as bounds.

B1: recombinant NELL2: purified recombinant NELL2 protein added to the culture medium (protein, UniProt Q99435 22-816, looked up)
Protein kinase C-binding …: LGVDPSLQIDVLTELELGESTTGVRQVPGLHNGTKAFLFQDTPRSIKASTATAEQFFQKLRNKHEFTILVTLKQTHLNSGVILSIHHLDHRYLELESSGHRNEVRLHYRSGSHRPHTEVFPYILADDKWHKLSLAISASHLILHIDCNKIYERVVEKPSTDLPLGTTFWLGQRNNAHGYFKGIMQDVQLLVMPQGFIAQCPDLNRTCPTCNDFHGLVQKIMELQDILAKTSAKLSRAEQRMNRLDQCYCERTCTMKGTTYREFESWIDGCKNCTCLNGTIQCETLICPNPDCPLKSALAYVDGKCCKECKSICQFQGRTYFEGERNTVYSSSGVCVLYECKDQTMKLVESSGCPALDCPESHQITLSHSCCKVCKGYDFCSERHNCMENSICRNLNDRAVCSCRDGFRALREDNAYCEDIDECAEGRHYCRENTMCVNTPGSFMCICKTGYIRIDDYSCTEHDECITNQHNCDENALCFNTVGGHNCVCKPGYTGNGTTCKAFCKDGCRNGGACIAANVCACPQGFTGPSCETDIDECSDGFVQCDSRANCINLPGWYHCECRDGYHDNGMFSPSGESCEDIDECGTGRHSCANDTICFNLDGGYDCRCPHGKNCTGDCIHDGKVKHNGQIWVLENDRCSVCSCQNGFVMCRRMVCDCENPTVDLFCCPECDPRLSSQCLHQNGETLYNSGDTWVQNCQQCRCLQGEVDCWPLPCPDVECEFSILPENECCPRCVTDPCQADTIRNDITKTCLDEMNVVRFTGSSWIKHGTECTLCQCKNGHICCSVDPQCLQEL
As for B1, the “Proliferation inhibition by NELL2 silencing, rescue by recombinant protein” value with A-673 and EW8 cells is given as “rescues proliferation arrest; also recorded: completely rescued”. For the same molecule, the “Proliferation inhibition by NELL2 silencing, rescue by recombinant protein” value in the experiment on A-673 and EW8 cells (listed as Recombinant NELL2) is given as “able to rescue the proliferation”. The “BAF subunit levels in NELL2 siRNA-transfected cells” value in the experiment on BAF complexes [1] (A-673 and EW8 cells, recombinant NELL2 250 ng/ml, FIG. 3J) is given as “restores the protein levels of BAF subunits; also recorded: rescued”. For the same molecule, the “CD133 and BAF subunit protein levels in the CD133low population” value with BAF complexes [1] (four or twenty-four hours, FIG. 5B) is “increases CD133 and BAF subunits; also recorded: increased CD133, BRG1, BAF250A, BAF155, and BAF47”. Also, in the experiment with BAF complexes [1] (recombinant NELL2 250 ng/ml, dasatinib present), the “BRG1, BAF155, and BAF47 levels after NELL2 silencing in the presence of dasatinib” value is given as “rescued”. Besides, the “Activation of cdc42 and Rac by NELL2 silencing” value with cdc42 and Rac (lane 1-3) was “abolished”. Also, the “Active cdc42 and active Rac in srGAP1- and srGAP2-silenced cells” value with cdc42 and Rac (lane 4-6) is “not affected”. The “Size of the BAF complexes after NELL2 silencing” value in the experiment with BAF complexes [2] is “largely restored the size”. In the experiment on CD133^low population, the “Recombinant NELL2 concentration able to rescue the slow growth of the CD133low population” value was at least 250 ng/mL and the “Slow growth of the CD133low population” value was “can be rescued; also recorded: rescues the slow growth”. Moreover, the “Accumulation of Robo3-FLAG on the cell surface after NELL2 silencing” value in experiment [3] is “reversed”.

The values are drawn from US20240287164A1, “ANTIBODIES SPECIFIC TO NELL2 AND METHODS OF USE” (BOARD OF REGENTS, THE UNIVERSITY OF TEXAS SYSTEM, priority 2021, published 2024).
